Values quoted from earlier work as cited in article PMC6668730.
Read-outs that look alike come from different tables or passages of the source.

Legend:
[1] = molecular target: Histone H3 (Homo sapiens) (UniProt P68431)
[2] = molecular target: Histone H3 (Homo sapiens) (UniProt P68431); remark: listed apart in the source
[3] = molecular target: Histone H3 (Drosophila melanogaster) (UniProt P02299)
[4] = molecular target: Histone H3 (Homo sapiens) (UniProt P68431); remark: listed apart in the source
[5] = molecular target: Histone H3 (Drosophila melanogaster) (UniProt P02299); remark: listed apart in the source

GLP1 ankyrin repeats, sequence (Q9H9B1 737-1004): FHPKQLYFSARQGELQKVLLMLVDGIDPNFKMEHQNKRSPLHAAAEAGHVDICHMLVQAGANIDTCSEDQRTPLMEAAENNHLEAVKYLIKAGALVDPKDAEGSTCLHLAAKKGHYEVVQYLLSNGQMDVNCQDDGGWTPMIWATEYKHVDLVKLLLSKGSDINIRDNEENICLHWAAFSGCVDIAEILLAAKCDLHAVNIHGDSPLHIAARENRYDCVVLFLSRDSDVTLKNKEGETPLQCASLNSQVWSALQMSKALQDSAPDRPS
G9a ankyrin repeats, sequence (Q96KQ7 649-879): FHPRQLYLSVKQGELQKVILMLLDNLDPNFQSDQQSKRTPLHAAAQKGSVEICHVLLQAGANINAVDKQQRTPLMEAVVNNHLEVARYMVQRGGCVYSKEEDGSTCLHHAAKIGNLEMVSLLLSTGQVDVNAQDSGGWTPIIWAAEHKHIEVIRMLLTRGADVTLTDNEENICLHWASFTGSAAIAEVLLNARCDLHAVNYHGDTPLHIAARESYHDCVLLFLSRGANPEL

Substance: BPTF PHD finger (from UniProt Q12830)
- Kd [1]: 5 µM
- Kd [2]: 2.7 µM

Substance: G9a ankyrin repeats (from UniProt Q96KQ7)
- Kd [3]: 6 µM

Substance: GLP1 ankyrin repeats (from UniProt Q9H9B1)
- Kd [4]: 5 µM
- Kd [5]: 7 µM
